Biological target: ryanodine receptor 1 (RyR1) purified from rabbit skeletal muscle (rabbit) (UniProt P11716)
Assay: cryo-EM structure

ryanodine receptor 1 (RyR1) purified from rabbit skeletal muscle, P11716 1-5037, sequence (P11716 whole entry): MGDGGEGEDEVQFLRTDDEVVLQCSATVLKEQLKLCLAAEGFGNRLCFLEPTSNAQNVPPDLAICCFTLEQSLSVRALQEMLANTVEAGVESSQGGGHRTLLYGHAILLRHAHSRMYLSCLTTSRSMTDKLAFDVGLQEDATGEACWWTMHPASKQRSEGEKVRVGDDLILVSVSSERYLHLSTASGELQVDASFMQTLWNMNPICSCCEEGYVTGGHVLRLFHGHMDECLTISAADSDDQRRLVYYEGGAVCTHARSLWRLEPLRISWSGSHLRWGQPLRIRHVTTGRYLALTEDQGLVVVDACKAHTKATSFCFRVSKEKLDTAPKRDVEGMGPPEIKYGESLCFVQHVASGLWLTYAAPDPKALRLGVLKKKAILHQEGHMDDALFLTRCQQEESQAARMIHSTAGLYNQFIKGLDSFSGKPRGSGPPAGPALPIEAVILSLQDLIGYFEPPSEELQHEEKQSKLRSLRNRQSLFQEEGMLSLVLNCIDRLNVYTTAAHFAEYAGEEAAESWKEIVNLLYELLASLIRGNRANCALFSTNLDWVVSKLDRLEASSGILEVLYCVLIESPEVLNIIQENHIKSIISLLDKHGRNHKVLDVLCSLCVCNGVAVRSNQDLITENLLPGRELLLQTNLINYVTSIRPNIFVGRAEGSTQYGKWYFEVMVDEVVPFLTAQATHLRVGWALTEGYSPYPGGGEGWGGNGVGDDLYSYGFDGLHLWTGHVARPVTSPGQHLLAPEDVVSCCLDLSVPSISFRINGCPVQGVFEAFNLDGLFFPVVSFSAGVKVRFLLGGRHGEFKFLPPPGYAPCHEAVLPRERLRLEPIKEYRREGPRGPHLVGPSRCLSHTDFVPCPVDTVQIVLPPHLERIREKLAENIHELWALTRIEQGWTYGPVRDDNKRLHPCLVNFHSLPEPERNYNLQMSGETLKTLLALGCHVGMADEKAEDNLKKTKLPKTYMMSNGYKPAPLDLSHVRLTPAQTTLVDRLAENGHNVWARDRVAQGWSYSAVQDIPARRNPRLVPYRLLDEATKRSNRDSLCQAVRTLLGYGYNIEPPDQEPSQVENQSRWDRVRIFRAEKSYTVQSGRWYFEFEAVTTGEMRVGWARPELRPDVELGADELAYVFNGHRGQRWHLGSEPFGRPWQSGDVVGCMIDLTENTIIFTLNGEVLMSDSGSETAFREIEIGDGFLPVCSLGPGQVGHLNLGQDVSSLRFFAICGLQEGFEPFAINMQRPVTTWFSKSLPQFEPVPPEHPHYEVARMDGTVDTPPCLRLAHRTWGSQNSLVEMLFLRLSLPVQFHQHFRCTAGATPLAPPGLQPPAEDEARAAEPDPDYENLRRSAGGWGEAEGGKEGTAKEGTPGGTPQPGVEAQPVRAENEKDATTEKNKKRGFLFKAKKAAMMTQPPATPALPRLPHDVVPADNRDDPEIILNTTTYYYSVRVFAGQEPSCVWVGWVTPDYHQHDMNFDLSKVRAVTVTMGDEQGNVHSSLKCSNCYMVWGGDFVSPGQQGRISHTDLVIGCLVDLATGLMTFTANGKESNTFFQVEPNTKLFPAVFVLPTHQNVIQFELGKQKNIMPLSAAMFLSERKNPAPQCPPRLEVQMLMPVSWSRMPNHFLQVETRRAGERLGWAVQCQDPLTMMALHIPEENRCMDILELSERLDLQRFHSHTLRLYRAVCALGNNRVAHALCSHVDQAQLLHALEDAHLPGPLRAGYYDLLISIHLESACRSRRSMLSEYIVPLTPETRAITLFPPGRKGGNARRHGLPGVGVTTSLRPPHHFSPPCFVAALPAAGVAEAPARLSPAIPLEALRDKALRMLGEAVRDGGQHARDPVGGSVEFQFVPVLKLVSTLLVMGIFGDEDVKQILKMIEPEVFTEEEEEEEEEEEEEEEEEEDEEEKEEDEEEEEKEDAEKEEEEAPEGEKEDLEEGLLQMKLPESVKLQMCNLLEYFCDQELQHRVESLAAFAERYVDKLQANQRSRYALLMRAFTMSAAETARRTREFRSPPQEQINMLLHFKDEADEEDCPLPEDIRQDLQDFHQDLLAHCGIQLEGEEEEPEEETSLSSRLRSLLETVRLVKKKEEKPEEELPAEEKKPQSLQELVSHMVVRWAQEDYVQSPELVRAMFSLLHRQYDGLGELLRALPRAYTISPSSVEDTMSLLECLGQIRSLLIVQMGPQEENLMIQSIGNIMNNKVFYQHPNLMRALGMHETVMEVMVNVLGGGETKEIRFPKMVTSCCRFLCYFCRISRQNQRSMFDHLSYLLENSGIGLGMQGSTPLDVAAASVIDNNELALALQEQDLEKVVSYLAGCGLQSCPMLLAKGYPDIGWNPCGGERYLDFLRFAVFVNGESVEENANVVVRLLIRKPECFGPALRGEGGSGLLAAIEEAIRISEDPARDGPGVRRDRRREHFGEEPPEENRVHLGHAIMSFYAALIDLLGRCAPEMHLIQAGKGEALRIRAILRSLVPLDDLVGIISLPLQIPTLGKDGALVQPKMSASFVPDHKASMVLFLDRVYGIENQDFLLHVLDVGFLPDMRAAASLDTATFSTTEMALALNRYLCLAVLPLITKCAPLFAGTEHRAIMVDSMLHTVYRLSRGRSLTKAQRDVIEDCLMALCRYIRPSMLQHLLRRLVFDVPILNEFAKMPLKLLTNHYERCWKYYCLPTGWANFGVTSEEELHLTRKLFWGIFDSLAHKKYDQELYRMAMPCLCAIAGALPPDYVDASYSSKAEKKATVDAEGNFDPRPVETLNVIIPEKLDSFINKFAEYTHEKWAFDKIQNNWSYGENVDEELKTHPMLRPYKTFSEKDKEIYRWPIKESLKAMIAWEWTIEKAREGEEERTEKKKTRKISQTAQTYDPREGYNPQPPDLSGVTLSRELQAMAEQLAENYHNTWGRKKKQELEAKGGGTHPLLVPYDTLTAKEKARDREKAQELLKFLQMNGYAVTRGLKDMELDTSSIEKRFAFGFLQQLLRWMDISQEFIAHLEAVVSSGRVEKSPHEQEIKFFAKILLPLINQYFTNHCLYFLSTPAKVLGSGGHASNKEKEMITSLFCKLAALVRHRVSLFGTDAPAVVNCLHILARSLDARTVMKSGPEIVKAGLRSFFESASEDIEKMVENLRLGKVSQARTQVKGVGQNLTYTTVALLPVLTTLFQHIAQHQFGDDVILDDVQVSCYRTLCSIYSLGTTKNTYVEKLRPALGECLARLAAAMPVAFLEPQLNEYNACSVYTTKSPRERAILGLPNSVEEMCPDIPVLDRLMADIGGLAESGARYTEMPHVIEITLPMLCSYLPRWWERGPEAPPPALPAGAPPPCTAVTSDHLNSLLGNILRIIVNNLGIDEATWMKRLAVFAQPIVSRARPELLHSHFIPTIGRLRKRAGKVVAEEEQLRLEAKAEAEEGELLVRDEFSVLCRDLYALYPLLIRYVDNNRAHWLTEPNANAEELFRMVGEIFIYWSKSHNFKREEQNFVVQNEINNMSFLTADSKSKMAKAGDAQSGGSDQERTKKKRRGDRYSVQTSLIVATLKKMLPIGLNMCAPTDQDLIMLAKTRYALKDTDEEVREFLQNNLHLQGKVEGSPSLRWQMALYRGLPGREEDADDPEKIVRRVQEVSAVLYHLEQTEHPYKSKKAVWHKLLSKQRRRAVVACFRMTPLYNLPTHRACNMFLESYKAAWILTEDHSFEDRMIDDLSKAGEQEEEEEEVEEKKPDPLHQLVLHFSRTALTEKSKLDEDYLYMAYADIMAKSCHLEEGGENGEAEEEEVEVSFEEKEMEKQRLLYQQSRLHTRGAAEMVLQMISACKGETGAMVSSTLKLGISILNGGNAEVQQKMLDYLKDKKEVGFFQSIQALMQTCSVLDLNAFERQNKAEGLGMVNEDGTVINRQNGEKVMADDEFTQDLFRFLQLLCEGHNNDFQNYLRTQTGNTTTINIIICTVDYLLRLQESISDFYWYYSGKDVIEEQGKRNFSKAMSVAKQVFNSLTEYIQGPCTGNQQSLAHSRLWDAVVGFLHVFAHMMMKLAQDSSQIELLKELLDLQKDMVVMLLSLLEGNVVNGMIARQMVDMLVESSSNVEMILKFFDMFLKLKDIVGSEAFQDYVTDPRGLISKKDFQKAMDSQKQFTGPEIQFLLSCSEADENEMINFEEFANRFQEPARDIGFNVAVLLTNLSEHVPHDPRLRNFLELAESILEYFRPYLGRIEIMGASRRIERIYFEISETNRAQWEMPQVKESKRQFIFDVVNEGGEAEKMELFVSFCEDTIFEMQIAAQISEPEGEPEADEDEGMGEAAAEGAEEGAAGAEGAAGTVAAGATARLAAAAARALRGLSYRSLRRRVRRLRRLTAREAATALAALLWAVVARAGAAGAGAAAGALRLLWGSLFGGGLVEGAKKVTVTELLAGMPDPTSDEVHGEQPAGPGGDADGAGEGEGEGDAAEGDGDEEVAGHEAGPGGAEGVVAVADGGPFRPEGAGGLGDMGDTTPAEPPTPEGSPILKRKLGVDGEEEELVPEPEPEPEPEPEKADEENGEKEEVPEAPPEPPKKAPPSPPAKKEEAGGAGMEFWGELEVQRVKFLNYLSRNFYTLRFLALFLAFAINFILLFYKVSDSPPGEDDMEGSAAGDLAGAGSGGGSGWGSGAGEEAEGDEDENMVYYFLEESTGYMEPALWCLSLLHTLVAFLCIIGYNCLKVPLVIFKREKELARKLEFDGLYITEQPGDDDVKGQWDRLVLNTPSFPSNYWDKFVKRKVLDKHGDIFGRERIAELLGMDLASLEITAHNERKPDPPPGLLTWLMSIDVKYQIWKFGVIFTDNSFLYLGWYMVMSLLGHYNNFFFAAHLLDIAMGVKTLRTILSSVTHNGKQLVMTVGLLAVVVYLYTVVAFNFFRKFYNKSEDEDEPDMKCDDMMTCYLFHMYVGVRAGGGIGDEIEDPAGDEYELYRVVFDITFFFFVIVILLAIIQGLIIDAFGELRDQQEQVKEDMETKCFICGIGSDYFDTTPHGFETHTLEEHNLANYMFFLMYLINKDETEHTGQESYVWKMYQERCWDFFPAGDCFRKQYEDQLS

Substance: ryanodine receptor 1 (RyR1) purified from rabbit skeletal muscle, P11716 1-5037
- stoichiometry N: 4
